# In PMC6059731 (Science Advances, 2018):
# Ends that are not written are not given here.
# Target: the molecule itself
# Experiment: SEC-SAXS
protein,measurement,value
"GIGDPVTCLKSGAICHPVFCPRRYKQIGTCGLPGTKCCKKP (natural protein, UniProt O15263 24-64, looked up, ends and bridges not checked; cysteine pairing not given here) [Human β-defensin 2 (HBD-2)]",monomer/dimer ratio (dimer part of 70:30),30
